This data set addresses PTBP1 (Homo sapiens, UniProt P26599 1-557). Kind of data set: EMSA; apparent Kd; tRNA competitor; EMSA, 10 uL: 6 uL DG buffer (20 mM Hepes-KOH pH 7.9, 20% glycerol, 80 mM K-glutamate, 0.2 mM EDTA, 0.2 mM PMSF), about 2.2 mM MgCl2, 0.05 mg/ml tRNA, RNaseOut. The note with it: protein: recombinant; label: 32P (alpha-32P UTP, internal). Background: In EMSA bound probe runs differently from free probe, usually more slowly.

Chain of PTBP1 (P26599 whole entry): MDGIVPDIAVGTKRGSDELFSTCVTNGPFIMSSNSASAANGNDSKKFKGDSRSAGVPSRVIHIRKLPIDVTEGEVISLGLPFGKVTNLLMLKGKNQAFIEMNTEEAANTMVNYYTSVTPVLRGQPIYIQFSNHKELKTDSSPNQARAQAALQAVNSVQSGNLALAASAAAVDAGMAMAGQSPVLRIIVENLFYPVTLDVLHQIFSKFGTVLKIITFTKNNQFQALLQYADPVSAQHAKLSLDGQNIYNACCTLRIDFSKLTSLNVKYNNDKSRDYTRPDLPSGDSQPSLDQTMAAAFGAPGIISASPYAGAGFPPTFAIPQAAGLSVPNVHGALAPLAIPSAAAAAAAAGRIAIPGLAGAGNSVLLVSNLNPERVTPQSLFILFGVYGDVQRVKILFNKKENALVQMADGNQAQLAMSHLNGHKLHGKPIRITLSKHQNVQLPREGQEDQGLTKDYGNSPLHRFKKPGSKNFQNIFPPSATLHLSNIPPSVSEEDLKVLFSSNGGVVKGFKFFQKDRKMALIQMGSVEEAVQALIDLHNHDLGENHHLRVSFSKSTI

B1: probe 10 (ssRNA)
RNA: GUGAGGGCUCUUUCUUCGUGGGACCGUAGAUAGGUAGCUGCUGCUGGUCUCACACUGUUCUCCCUACAG
B1: the Kd amounted to 73 nM.

These data come from paper PMC3907290, “De Novo Prediction of PTBP1 Binding and Splicing Targets Reveals Unexpected Features of Its RNA Recognition and Function”.
